The results in this text go back to US20210230600, “NUCLEIC ACID-DRUG COMPLEX AND USE THEREOF” (Industrial Technology Research Institute, published 2021).

Common to all, as to settings: tags: HEK-Blue mouse TLR9 reporter cells, InvivoGen
For data set [1], the target named is T1, TLR9 (Mus musculus, UniProt Q9EQU3 Q9EQU3:26-1032).
T1 sequence: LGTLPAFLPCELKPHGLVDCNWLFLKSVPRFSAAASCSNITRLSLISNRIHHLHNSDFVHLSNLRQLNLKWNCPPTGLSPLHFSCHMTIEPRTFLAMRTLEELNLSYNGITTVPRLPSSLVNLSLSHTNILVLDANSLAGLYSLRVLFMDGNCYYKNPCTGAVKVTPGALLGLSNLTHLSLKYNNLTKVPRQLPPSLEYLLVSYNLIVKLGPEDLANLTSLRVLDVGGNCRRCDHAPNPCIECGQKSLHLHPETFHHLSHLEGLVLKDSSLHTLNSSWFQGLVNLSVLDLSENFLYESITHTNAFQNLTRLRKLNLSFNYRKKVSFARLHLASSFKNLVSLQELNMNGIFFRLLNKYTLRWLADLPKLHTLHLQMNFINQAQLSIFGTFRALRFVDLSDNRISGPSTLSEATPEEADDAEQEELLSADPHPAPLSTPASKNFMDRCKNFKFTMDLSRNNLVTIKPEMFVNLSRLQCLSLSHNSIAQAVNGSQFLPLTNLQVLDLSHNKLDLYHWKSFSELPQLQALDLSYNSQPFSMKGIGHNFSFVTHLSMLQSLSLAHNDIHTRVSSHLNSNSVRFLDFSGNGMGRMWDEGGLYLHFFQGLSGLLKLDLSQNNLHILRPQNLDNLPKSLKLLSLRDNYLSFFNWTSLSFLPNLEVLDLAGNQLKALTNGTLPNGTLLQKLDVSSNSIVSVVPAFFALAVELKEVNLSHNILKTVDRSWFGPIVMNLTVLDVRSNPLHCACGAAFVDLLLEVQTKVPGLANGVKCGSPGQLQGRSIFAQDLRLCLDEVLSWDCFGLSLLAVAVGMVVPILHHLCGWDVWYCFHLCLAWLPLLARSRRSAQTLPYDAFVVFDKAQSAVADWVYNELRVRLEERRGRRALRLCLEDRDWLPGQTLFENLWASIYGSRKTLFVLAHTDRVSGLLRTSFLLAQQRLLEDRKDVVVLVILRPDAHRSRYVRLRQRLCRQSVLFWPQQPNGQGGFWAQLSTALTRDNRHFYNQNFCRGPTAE
Nature of the data set: cell_activity; SEAP reporter activation, 37 C. On the procedure: (§1) HEK-Blue cells expressing mouse TLR9 (InvivoGen) were cultured in a complete DMEM medium (Dulbecco's modified Eagle's medium), which was supplemented with 100 μg/ml Normocin, 30 μg/ml Blasticidin, and 100 μg/ml Zeocin (all InvivoGen). HEK-Blue cells contained a secreted alkaline phosphatase (SEAP) reporting system, which produces colorimetric changes after interacting with TLR9.
(§2) HEK-Blue Detection mixture (cell culture medium for SEAP detection, InvivoGen) is used to detect the presence of SEAP, which is produced by stimulation of a TLR9 ligand through NF-κB activation. Detection mixture contained nutrients for cell growth and color substrate, whose color will change when it is hydrolyzed by SEAP. When HEK 293 cells expressing mouse TLR9 (InvivoGen) reached 60-80% confluency, they were collected, centrifuged and resuspended in Detection mixture. Cells (72,000) were seeded in each well of a 96-well plate (180 μl). The cells were then treated in combination with 20 μl PBS (unstimulated; as a negative control group), “CpG-L0-PS” (as a positive control group) or nucleic acid-drug complex samples of varying concentrations in PBS in duplicate wells, and incubated for 24 hours at 37° C. in 5% CO₂. The plate was read spectrophotometrically by using a multimode plate reader (Tecan, Infinite™ M200 PRO, Männedorf, Switzerland) at a wavelength of 620 nm to 655 nm.

Data set [2] addresses T1, TLR9. Nature of the data set: cell_activity; SEAP reporter activation, 37 C; 5.5 nM in FIG. 5 experiment. How it is done: as §1, §2
The target of data set [3] is T1, TLR9. Kind of data set: cell_activity; SEAP reporter activation, 37 C; 1.3 nM in FIG. 5 experiment. How it is done:
as §1, §2

Data set [4] has as its target T1, TLR9. Kind of data set: cell_activity; SEAP reporter activation, 37 C. On the procedure: as §1, §2
The experimental content is substantially the same as that of FIG. 4. The sample “CpG-L0-PS” in FIG. 5 corresponds to SEQ ID NO: 10 (which was not connected with anti-PD-L1 aptamer), and all phosphodiester bonds in the CpG oligonucleotide sequence were modified to phosphorothioate bonds.
This is another data set of the same source.

The target in data set [5] is T1, TLR9. Kind of data set: cell_activity; SEAP reporter activation, 37 C; 2.1 nM in FIG. 5 experiment. How it is done: as §1, §2

The EC50 is the concentration giving half of the maximal effect.

B1: PDL1-CpG29-9PS (ssDNA)
DNA: CACATCAACTCATTGATAGACAATGCGTCCTTCGAACGTTCGAACGTTCGAACGTTCGAA
modifications: PS at part of the linkages of the CpG part
Consider B1, for which, in data set [1], the EC50 was 149 nM.

B2: ApDC5-PS (ssDNA)
DNA: TCGAACGTTCGAACGTTCGAACGTTCGAATCACATCAACTCATTGATAGACAATGCGTCC
modifications: PS at all linkages of the CpG part
As for B2, in data set [2], the EC50 worked out at 2.48 nM.

B3: ApDC5-7PS (ssDNA)
DNA: B2 DNA
modifications: PS at part of the linkages of the CpG part
In the case of B3, in data set [1], the EC50 worked out at 72.2 nM.

B4: PDL1-CpG30-PS (ssDNA)
DNA: CACATCAACTCATTGATAGACAATGCGTCCTCGAACGTTCGAACGTTCGAACGTTCGAAT
modifications: PS at all linkages of the CpG part
B4: the EC50 in data set [1] was 2.36 nM.

B5: ApDC-A21B (ssDNA)
DNA: TCGAACGTTCGAACGACTCATTGATAGACAATGCGTTTCGAACGTTCGAAT
modifications: PS at all linkages of the CpG part
For B5, in data set [3], the EC50 is 0.77 nM.
As to TCGAACGTTCGAATACTCATTGATAGACAATGCGTTTCGAACGTTCGAAT (ssDNA, PS at all linkages of the CpG part) [ApDC-B21B], the EC50 in data set [4] worked out at 0.6 nM.
As to TCGAACGTTCGAACGTTCGAACGTTCGAAT (ssDNA, PS at all linkages) [CpG-L0-PS], in data set [5], the EC50 is 2.09 nM.

B6: ApDC-A21A (ssDNA)
DNA: TCGAACGTTCGAACGACTCATTGATAGACAATGCGTTCGAACGTTCGAACG
modifications: PS at all linkages of the CpG part
Consider B6, for which the EC50 in data set [4] worked out at 0.6 nM.

B7: ApDC-A33B (ssDNA)
DNA: TTTCGAACGTTCGAACGCCACATCAACTCATTGATAGACAATGCGTCCACCGTTCGAACGTTCGATT
modifications: PS at part of the linkages of the CpG part
Turning to B7, the EC50 in data set [4] is 16400 nM.
